Laboratory results: publication PMC9131392 (Biomacromolecules, 2021)
Where “and” joins values, the source holds several entries; their conditions need not be identical. Equal entries are not always repeated. Where two headings read alike, the source gives them in different places.

Key:
SEC-SAXS [1] = target: the molecule itself; experiment: SEC-SAXS
SEC-SAXS [2] = target: the molecule itself; experiment: SEC-SAXS; remark: listed apart in the source

B1: C-phycocyanin (αβ) monomer from Spirulina platensis (complex)
chain 1: not shown
chain 2: MFDAFTKVVSQADTRGEMLSTAQIDALSQMVAESNKRLDAVNRITSNASTIVSNAARSLFAEQPQLIAPGGNAYTSRRMAACLRDMEIILRYVTYAVFAGDASVLEDRCLNGLRETYLALGTPGSSVAVGVGKMKEAALAIVNDPAGITPGDCSALASEIASYFDRACAAVS
modifications: open-chain tetrapyrrole chromophore cofactors attached covalently | open-chain tetrapyrrole chromophore cofactors attached covalently
- stoichiometry N (SEC-SAXS [1]): 12 and 24
- stoichiometry N (SEC-SAXS [2]): 3
